From publication PMC4860839, “Structures of the APC–ARM domain in complexes with discrete Amer1/WTX fragments reveal that it uses a consensus mode to recognize its binding partners” (Cell Discovery, 2015)

B1: pBTM-APC–ARM (residues 308–789), two-hybrid bait [human] / Amer1-A1 (murine, residues 279–367), two-hybrid prey [murine] (parent complex)
chain 1: LGTKVEMVYSLLSMLGTHDKDDMSRTLLAMSSSQDSCISMRQSGCLPLLIQLLHGNDKDSVLLGNSRGSKEARARASAALHNIIHSQPDDKRGRREIRVLHLLEQIRAYCETCWEWQEAHEPGMDQDKNPMPAPVEHQICPAVCVLMKLSFDEEHRHAMNELGGLQAIAELLQVDCEMYGLTNDHYSITLRRYAGMALTNLTFGDVANKATLCSMKGCMRALVAQLKSESEDLQQVIASVLRNLSWRADVNSKKTLREVGSVKALMECALEVKKESTLKSVLSALWNLSAHCTENKADICAVDGALAFLVGTLTYRSQTNTLAIIESGGGILRNVSSLIATNEDHRQILRENNCLQTLLQHLKSHSLTIVSNACGTLWNLSARNPKDQEALWDMGAVSMLKNLIHSKHKMIAMGSAAALRNLMANRPAKYKDANIMSPGSSLPSLHVRKQKALEAELDAQHLSETFDNIDNLSPKASHRSKQ
chain 2: SLEEPHTSETEGKVVAGEVNPPNGPVGDQLSLLFGDVTSLKSFDSLTGCGDIIAEQDMDSMTDSMASGGQRANRDGTKRSSCLVTYQGG
B2: pBTM-APC–ARM (residues 308–789), two-hybrid bait [human] / Amer1-A4 (human, residues 337–455), two-hybrid prey [human] (parent complex)
chain 1: B1 chain 1
chain 2: MDSMTDSMASGGQRANRDGTKRSSCLVTYQGGGEEMALPDDDDEEEEEEEEVELEEEEEEVKEEEEDDDLEYLWETAQMYPRPNMNLGYHPTTSPGHHGYMLLDPVRSYPGLAPGELLT

Variants of: B1
Experiment: yeast two-hybrid assay (relative β-galactosidase reporter activity); parent: 100

Row | Variant | percent of parent [%]
1 | chain 1 LGTKVEMVYSLLSMLGTHDKDDMSRTLLAMSSSQDSCISMRQSGCLPLLIQLLHGNDKDSVLLGNSRGSKEARARASAALHNIIHSQPDDKRGRREIRVLHLLEQIRAYCETCWEWQEAHEPGMDQDKNPMPAPVEHQICPAVCVLMKLSFDEEHRHAMNELGGLQAIAELLQVDCEMYGLTNDHYSITLRRYAGMALTNLTFGDVANEATLCSMKGCMRALVAQLKSESEDLQQVIASVLRNLSWRADVNSKKTLREVGSVKALMECALEVKKESTLKSVLSALWNLSAHCTENKADICAVDGALAFLVGTLTYRSQTNTLAIIESGGGILRNVSSLIATNEDHRQILRENNCLQTLLQHLKSHSLTIVSNACGTLWNLSARNPKDQEALWDMGAVSMLKNLIHSKHKMIAMGSAAALRNLMANRPAKYKDANIMSPGSSLPSLHVRKQKALEAELDAQHLSETFDNIDNLSPKASHRSKQ [chain 1 K209E] | 0.09
2 | chain 1 LGTKVEMVYSLLSMLGTHDKDDMSRTLLAMSSSQDSCISMRQSGCLPLLIQLLHGNDKDSVLLGNSRGSKEARARASAALHNIIHSQPDDKRGRREIRVLHLLEQIRAYCETCWEWQEAHEPGMDQDKNPMPAPVEHQICPAVCVLMKLSFDEEHRHAMNELGGLQAIAELLQVDCEMYGLTNDHYSITLRRYAGMALTKLTFGDVANKATLCSMKGCMRALVAQLKSESEDLQQVIASVLRNLSWRADVNSKKTLREVGSVKALMECALEVKKESTLKSVLSALWNLSAHCTENKADICAVDGALAFLVGTLTYRSQTNTLAIIESGGGILRNVSSLIATNEDHRQILRENNCLQTLLQHLKSHSLTIVSNACGTLWNLSARNPKDQEALWDMGAVSMLKNLIHSKHKMIAMGSAAALRNLMANRPAKYKDANIMSPGSSLPSLHVRKQKALEAELDAQHLSETFDNIDNLSPKASHRSKQ [chain 1 N200K] | 1.86
3 | chain 1 LGTKVEMVYSLLSMLGTHDKDDMSRTLLAMSSSQDSCISMRQSGCLPLLIQLLHGNDKDSVLLGNSRGSKEARARASAALHNIIHSQPDDKRGRREIRVLHLLEQIRAYCETCWEWQEAHEPGMDQDKNPMPAPVEHQICPAVCVLMKLSFDEEHRHAMNELGGLQAIAELLQVDCEMYGLTNDHYSITLRRYAGMALTNLTFGDVANKATLCSMKGCMRALVAQLKSESEDLQQVIASVLRNLSWRADVNSKKTLREVGSVKALMECALEVKKESTLKSVLSALWNLSAHCTENKADICAVDGALAFLVGTLTYRSQTNTLAIIESGGGILRNVSSLIATNEDHRQILRENNCLQTLLQHLKSHSLTIVSNACGTLWNLSARNPKDQEALWDMGAVSMLKNLIHSKHKKIAMGSAAALRNLMANRPAKYKDANIMSPGSSLPSLHVRKQKALEAELDAQHLSETFDNIDNLSPKASHRSKQ [chain 1 M410K] | 33.7

Other lines, results leading:

Row | percent of parent [%] | Variant
4 | 41.3 | chain 1 LGTKVEMVYSLLSMLGTHDKDDMSRTLLAMSSSQDSCISMRQSGCLPLLIQLLHGNDKDSVLLGNSRGSKEARARASAALHNIIHSQPDDKRGRREIRVLHLLEQIRAYCETCWEWQEAHEPGMDQDKNPMPAPVEHQICPAVCVLMKLSFDEEHRHAMNELGGLQAIAELLQVDCEMYGLTNDHYSITLRRYAGMALTNLTFGDVANKATLCSMKGCMRALVAQLKSESEDLQQVIASVLRNLSWRADVNSKKTLREVGSVKALMECALEVKKESTLKSVLSALWNLSAHCTENKADICAVDGALAFLVGTLTYRSQTNTLAIIESGGGILRNVSSLIATNEDHRQILRENNCLQTLLQHLKSHSLTIVSNACGTLWNLSARNPKDQEALWDMGAVSMLKNLIHSKHKMIAMGSAAALENLMANRPAKYKDANIMSPGSSLPSLHVRKQKALEAELDAQHLSETFDNIDNLSPKASHRSKQ [chain 1 R420E]
5 | 0.38 | chain 1 LGTKVEMVYSLLSMLGTHDKDDMSRTLLAMSSSQDSCISMRQSGCLPLLIQLLHGNDKDSVLLGNSRGSKEARARASAALHNIIHSQPDDKRGRREIRVLHLLEQIRAYCETCWEWQEAHEPGMDQDKNPMPAPVEHQICPAVCVLMKLSFDEEHRHAMNELGGLQAIAELLQVDCEMYGLTNDHYSITLRRYAGMALTNLTFGDVANKATLCSMKGCMRALVAQLKSESEDLQQVIASVLRKLSWRADVNSKKTLREVGSVKALMECALEVKKESTLKSVLSALWNLSAHCTENKADICAVDGALAFLVGTLTYRSQTNTLAIIESGGGILRNVSSLIATNEDHRQILRENNCLQTLLQHLKSHSLTIVSNACGTLWNLSARNPKDQEALWDMGAVSMLKNLIHSKHKMIAMGSAAALRNLMANRPAKYKDANIMSPGSSLPSLHVRKQKALEAELDAQHLSETFDNIDNLSPKASHRSKQ [chain 1 N243K]
6 | 1.48 | chain 1 LGTKVEMVYSLLSMLGTHDKDDMSRTLLAMSSSQDSCISMRQSGCLPLLIQLLHGNDKDSVLLGNSRGSKEARARASAALHNIIHSQPDDKRGRREIRVLHLLEQIRAYCETCWEWQEAHEPGMDQDKNPMPAPVEHQICPAVCVLMKLSFDEEHRHAMNELGGLQAIAELLQVDCEMYGLTNDHYSITLRRYAGMALTNLTFGDVANKATLCSMKGCMRALVAQLKSESEDLQQVIASVLENLSWRADVNSKKTLREVGSVKALMECALEVKKESTLKSVLSALWNLSAHCTENKADICAVDGALAFLVGTLTYRSQTNTLAIIESGGGILRNVSSLIATNEDHRQILRENNCLQTLLQHLKSHSLTIVSNACGTLWNLSARNPKDQEALWDMGAVSMLKNLIHSKHKMIAMGSAAALRNLMANRPAKYKDANIMSPGSSLPSLHVRKQKALEAELDAQHLSETFDNIDNLSPKASHRSKQ [chain 1 R242E]

Variants of: B2
Experiment: as above

Row | Variant | percent of parent [%]
7 | chain 1 LGTKVEMVYSLLSMLGTHDKDDMSRTLLAMSSSQDSCISMRQSGCLPLLIQLLHGNDKDSVLLGNSRGSKEARARASAALHNIIHSQPDDKRGRREIRVLHLLEQIRAYCETCWEWQEAHEPGMDQDKNPMPAPVEHQICPAVCVLMKLSFDEEHRHAMNELGGLQAIAELLQVDCEMYGLTNDHYSITLRRYAGMALTNLTFGDVANEATLCSMKGCMRALVAQLKSESEDLQQVIASVLRNLSWRADVNSKKTLREVGSVKALMECALEVKKESTLKSVLSALWNLSAHCTENKADICAVDGALAFLVGTLTYRSQTNTLAIIESGGGILRNVSSLIATNEDHRQILRENNCLQTLLQHLKSHSLTIVSNACGTLWNLSARNPKDQEALWDMGAVSMLKNLIHSKHKMIAMGSAAALRNLMANRPAKYKDANIMSPGSSLPSLHVRKQKALEAELDAQHLSETFDNIDNLSPKASHRSKQ [chain 1 K209E] | 3.93
8 | chain 1 LGTKVEMVYSLLSMLGTHDKDDMSRTLLAMSSSQDSCISMRQSGCLPLLIQLLHGNDKDSVLLGNSRGSKEARARASAALHNIIHSQPDDKRGRREIRVLHLLEQIRAYCETCWEWQEAHEPGMDQDKNPMPAPVEHQICPAVCVLMKLSFDEEHRHAMNELGGLQAIAELLQVDCEMYGLTNDHYSITLRRYAGMALTKLTFGDVANKATLCSMKGCMRALVAQLKSESEDLQQVIASVLRNLSWRADVNSKKTLREVGSVKALMECALEVKKESTLKSVLSALWNLSAHCTENKADICAVDGALAFLVGTLTYRSQTNTLAIIESGGGILRNVSSLIATNEDHRQILRENNCLQTLLQHLKSHSLTIVSNACGTLWNLSARNPKDQEALWDMGAVSMLKNLIHSKHKMIAMGSAAALRNLMANRPAKYKDANIMSPGSSLPSLHVRKQKALEAELDAQHLSETFDNIDNLSPKASHRSKQ [chain 1 N200K] | 0.28
9 | chain 1 LGTKVEMVYSLLSMLGTHDKDDMSRTLLAMSSSQDSCISMRQSGCLPLLIQLLHGNDKDSVLLGNSRGSKEARARASAALHNIIHSQPDDKRGRREIRVLHLLEQIRAYCETCWEWQEAHEPGMDQDKNPMPAPVEHQICPAVCVLMKLSFDEEHRHAMNELGGLQAIAELLQVDCEMYGLTNDHYSITLRRYAGMALTNLTFGDVANKATLCSMKGCMRALVAQLKSESEDLQQVIASVLRNLSWRADVNSKKTLREVGSVKALMECALEVKKESTLKSVLSALWNLSAHCTENKADICAVDGALAFLVGTLTYRSQTNTLAIIESGGGILRNVSSLIATNEDHRQILRENNCLQTLLQHLKSHSLTIVSNACGTLWNLSARNPKDQEALWDMGAVSMLKNLIHSKHKKIAMGSAAALRNLMANRPAKYKDANIMSPGSSLPSLHVRKQKALEAELDAQHLSETFDNIDNLSPKASHRSKQ [chain 1 M410K] | 28.1

Further lines, results first:

Row | percent of parent [%] | Variant
10 | 0.28 | chain 1 LGTKVEMVYSLLSMLGTHDKDDMSRTLLAMSSSQDSCISMRQSGCLPLLIQLLHGNDKDSVLLGNSRGSKEARARASAALHNIIHSQPDDKRGRREIRVLHLLEQIRAYCETCWEWQEAHEPGMDQDKNPMPAPVEHQICPAVCVLMKLSFDEEHRHAMNELGGLQAIAELLQVDCEMYGLTNDHYSITLRRYAGMALTNLTFGDVANKATLCSMKGCMRALVAQLKSESEDLQQVIASVLRKLSWRADVNSKKTLREVGSVKALMECALEVKKESTLKSVLSALWNLSAHCTENKADICAVDGALAFLVGTLTYRSQTNTLAIIESGGGILRNVSSLIATNEDHRQILRENNCLQTLLQHLKSHSLTIVSNACGTLWNLSARNPKDQEALWDMGAVSMLKNLIHSKHKMIAMGSAAALRNLMANRPAKYKDANIMSPGSSLPSLHVRKQKALEAELDAQHLSETFDNIDNLSPKASHRSKQ [chain 1 N243K]
11 | 0.84 | chain 1 LGTKVEMVYSLLSMLGTHDKDDMSRTLLAMSSSQDSCISMRQSGCLPLLIQLLHGNDKDSVLLGNSRGSKEARARASAALHNIIHSQPDDKRGRREIRVLHLLEQIRAYCETCWEWQEAHEPGMDQDKNPMPAPVEHQICPAVCVLMKLSFDEEHRHAMNELGGLQAIAELLQVDCEMYGLTNDHYSITLRRYAGMALTNLTFGDVANKATLCSMKGCMRALVAQLKSESEDLQQVIASVLENLSWRADVNSKKTLREVGSVKALMECALEVKKESTLKSVLSALWNLSAHCTENKADICAVDGALAFLVGTLTYRSQTNTLAIIESGGGILRNVSSLIATNEDHRQILRENNCLQTLLQHLKSHSLTIVSNACGTLWNLSARNPKDQEALWDMGAVSMLKNLIHSKHKMIAMGSAAALRNLMANRPAKYKDANIMSPGSSLPSLHVRKQKALEAELDAQHLSETFDNIDNLSPKASHRSKQ [chain 1 R242E]
12 | 132 | chain 1 LGTKVEMVYSLLSMLGTHDKDDMSRTLLAMSSSQDSCISMRQSGCLPLLIQLLHGNDKDSVLLGNSRGSKEARARASAALHNIIHSQPDDKRGRREIRVLHLLEQIRAYCETCWEWQEAHEPGMDQDKNPMPAPVEHQICPAVCVLMKLSFDEEHRHAMNELGGLQAIAELLQVDCEMYGLTNDHYSITLRRYAGMALTNLTFGDVANKATLCSMKGCMRALVAQLKSESEDLQQVIASVLRNLSWRADVNSKKTLREVGSVKALMECALEVKKESTLKSVLSALWNLSAHCTENKADICAVDGALAFLVGTLTYRSQTNTLAIIESGGGILRNVSSLIATNEDHRQILRENNCLQTLLQHLKSHSLTIVSNACGTLWNLSARNPKDQEALWDMGAVSMLKNLIHSKHKMIAMGSAAALENLMANRPAKYKDANIMSPGSSLPSLHVRKQKALEAELDAQHLSETFDNIDNLSPKASHRSKQ [chain 1 R420E]
